Experimental data published in PMC11988119.

Target: GnRH-AIF chimeric protein
Assay: co-IP; anti-AIF antibody (ab32516) on Protein A/G beads; nuclear fractions of Colo205 cells treated with GnRH-AIF (1 µM) or PBS for 24 h; overnight at 4 °C, washed with PBS; blots with anti-ENDOG and anti-AIFM1

B1: endonuclease G (enzyme)
chain: AELPPVPGGPRGPGELAKYGLPGLAQLKSRESYVLCYDPRTRGALWVVEQLRPERLRGDGDRRECDFREDDSVHAYHRATNADYRGSGFDRGHLAAAANHRWSQKAMDDTFYLSNVAPQVPHLNQNAWNNLEKYSRSLTRSYQNVYVCTGPLFLPRTEADGKSYVKYQVIGKNHVAVPTHFFKVLILEAAGGQIELRTYVMPNAPVDEAIPLERFLVPIESIERASGLLFVPNILARAGSLKAITAGSK
- fold increase of co-precipitated ENDOG, cells treated with GnRH-AIF against PBS control: 1.6 fold
